According to patent publication US20050130151:

Tested on: FMRP RGG box (isolated, C-terminal deletion construct) (Homo sapiens), Q06787-9
Experiment: filter

In the case of 28S rRNA fragment (230 nt), the Kd is reported as greater than 5 µM.
